Laboratory results taken from patent US9206432B2, “Sulfonylurea-responsive repressor proteins” (priority 2008, dated 2015).
Where two headings read alike, the source gives them in different places.

System: lacZ under control of the tetA promoter (PtetA) in E. coli KM3
Format: cell-based
Settings: for relative β-galactosidase activity, inducer atc: anhydrotetracycline (0.4 μM)
[1] = Table 4, chlorimuron 20 ppm, 48 hrs at 30° C.
[2] = Table 4, chlorsulfuron 20 ppm, 48 hrs at 30° C.
[3] = Table 4, ethametsulfuron 20 ppm, 48 hrs at 30° C.
[4] = Table 4, metsulfuron 20 ppm, 48 hrs at 30° C.
[5] = Table 4, nicosulfuron 20 ppm, 48 hrs at 30° C.
[6] = Table 4, rimsulfuron 20 ppm, 48 hrs at 30° C.
[7] = Table 4, sulfometuron 20 ppm, 48 hrs at 30° C.
[8] = Table 4, thifensulfuron 20 ppm, 48 hrs at 30° C.
[9] = Table 4, tribenuron 20 ppm, 48 hrs at 30° C.
[10] = Table 6, reverse repressor hits
[11] = Table 6, reverse repressor hits, chlorimuron, same plate assay format (20 ppm)
[12] = Table 6, reverse repressor hits, chlorsulfuron, same plate assay format (20 ppm)
[13] = Table 6, reverse repressor hits, ethametsulfuron, same plate assay format (20 ppm)
[14] = Table 6, reverse repressor hits, metsulfuron, same plate assay format (20 ppm)
[15] = Table 6, reverse repressor hits, nicosulfuron, same plate assay format (20 ppm)
[16] = Table 6, reverse repressor hits, rimsulfuron, same plate assay format (20 ppm)
[17] = Table 6, reverse repressor hits, sulfometuron, same plate assay format (20 ppm)
[18] = Table 6, reverse repressor hits, thifensulfuron, same plate assay format (20 ppm)
[19] = Table 6, reverse repressor hits, tribenuron, same plate assay format (20 ppm)

| Molecule | relative β-galactosidase activity, inducer Ci [1] | relative β-galactosidase activity, inducer Cs [2] | relative β-galactosidase activity, inducer Es [3] | relative β-galactosidase activity, inducer Ms [4] | relative β-galactosidase activity, inducer Ns [5] | relative β-galactosidase activity, inducer Rs [6] | relative β-galactosidase activity, inducer Sm [7] | relative β-galactosidase activity, inducer Ts [8] | relative β-galactosidase activity, inducer Tb [9] | relative β-galactosidase activity, inducer atc [10] | relative β-galactosidase activity, inducer Ci [11] | relative β-galactosidase activity, inducer Cs [12] | relative β-galactosidase activity, inducer Es [13] | relative β-galactosidase activity, inducer Ms [14] | relative β-galactosidase activity, inducer Ns [15] | relative β-galactosidase activity, inducer Rs [16] | relative β-galactosidase activity, inducer Sm [17] | relative β-galactosidase activity, inducer Ts [18] | relative β-galactosidase activity, inducer Tb [19] |
| --- | --- | --- | --- | --- | --- | --- | --- | --- | --- | --- | --- | --- | --- | --- | --- | --- | --- | --- | --- |
| L1-2: SU-responsive TetR(B) ligand binding domain variant, library L1 hit, SEQ ID NO: 3 (protein, Sulfonylurea responsive repressor L1-02) MGSRLDKSKVINSALELLNEVGIEGLTTRKLAQKLGVEQPTLYWHVKNKRALLDALAIEMLDRHATHFCPLEGESWQDFLRNNAKSFRCALLSHRDGAKVCLGTAVTEKQYETMENILAFLCQQGFSLENALYARRAVIAFTLGCVLWDQEYQVAKEERETPTTDSMPPLLRQARELIDHQGAEPAFLFGLELIICGLEKQLKCESGS | 13.6 | 4.1 | 5.8 | 1.9 | 1.3 | 1.3 | 4.7 | 1.6 | 1.7 | – | – | – | – | – | – | – | – | – | – |
| L1-36: library L1 hit with reverse repressor activity (SEQ ID NO: 1206-1213) (protein, rSuR L1-36) MGSRLDKSKVINSALELLNEVGIEGLTTRKLAQKLGVEQPTLYWHVKNKRALLDALAIEMADRHHTHFCPLEGESWQDFLRNAAKSMRCALLSHRDGAKVRLGTAWTEKQYETHENVLAFLCQQGFSLENALYALKAVSGFTLGCVLKDQEMQVAKEERETPTTDSMPPLLRQATELVDHQGAEPAFLFGLELIICGLEKQLKCESGS | – | – | – | – | – | – | – | – | – | 1.70 | 0.21 | 0.24 | 0.20 | 0.38 | 1.81 | 1.84 | 0.50 | 0.48 | 0.57 |
| L1-39: library L1 hit with reverse repressor activity (SEQ ID NO: 1206-1213) (protein, rSuR L1-39) MGSRLDKSKVINSALELLNEVGIEGLTTRKLAQKLGVEQPTLYWHVKNKRALLDALAIEMMDRHQTHFCPLEGESWQDFLRNTAKSYRCALLSHRDGAKVILGTRWTEKQYETRENVLAFLCQQGFSLENALYAWAAVGPFTLGCVLRDQERQVAKEERETPTTDSMPPLLRQALELMDHQGAEPAFLFGLELIICGLEKQLKCESGS | – | – | – | – | – | – | – | – | – | 4.92 | 0.49 | 0.89 | 0.60 | 0.75 | 3.03 | 4.72 | 0.91 | 1.42 | 0.97 |
| L1-41: library L1 hit with reverse repressor activity (SEQ ID NO: 1206-1213) (protein, rSuR L1-41) MGSRLDKSKVINSALELLNEVGIEGLTTRKLAQKLGVEQPTLYWHVKNKRALLDALAIEMLDRNQTHFCPLEGESWQDFLRNNAKSWRCALLSHRDGAKVMLGTRNTEKQYETAENGLAFLCQQGFSLENALYACRAVWTFTLGCVLDDQETQVAKEERETPTSDSMPPLLRQAMELKDHQGAEPAFLFGLELIICGLEKQLKCESGS | – | – | – | – | – | – | – | – | – | 4.21 | 0.39 | 0.61 | 0.18 | 0.56 | 2.75 | 4.05 | 0.67 | 1.46 | 1.41 |
| L1-7: SU-responsive TetR(B) variant, library L1 hit, SEQ ID NO: 4 (protein, Sulfonylurea responsive repressor L1-07) MGSRLDKSKVINSALELLNEVGIEGLTTRKLAQKLGVEQPTLYWHVKNKRALLDALAIEMLDRHNTHFCPLEGESWQDFLRNNAKSWRCALLSHRDGAKVVLGTAITEKQYETHENPLAFLCQQGFSLENALYAIAAVRRFTLGCVLVDQERQVAKEERETPTTDSMPPLLRQASELQDHQGAEPAFLFGLELIICGLEKQLKCERGS | 16.5 | 3.1 | 0.1 | 0.2 | 0.1 | 0.2 | 6.4 | 0.1 | 0.2 | – | – | – | – | – | – | – | – | – | – |
| L1-20: SU-responsive TetR(B) variant, library L1 hit, SEQ ID NO: 6 (protein, Sulfonylurea responsive repressor L1-20) MGSRLDKSKVINSALELLNEVGIEGLTTRKLAQKLGVEQPTLYWHVKNKRALLDALAIEMMDRHQTHFCPLEGESWQDFLRNNAKSMRCALLSHRDGAKVFLGTAWTEKQYETVENLLAFLCQQGFSLENALYALNAVATFTLGCVLWDQEKQVAKEERETPTTDSMPPLLRQAHELGDHQGAEPAFLFGLELIICGLEKQLKSESGS | 13.5 | 22.0 | 15.0 | 12.4 | 1.6 | 2.0 | 6.0 | 2.6 | 2.6 | – | – | – | – | – | – | – | – | – | – |
